Assay results taken from the supplement of paper PMC9112550, “Optimization of the antimicrobial peptide Bac7 by deep mutational scanning” (BMC Biology, 2022).

test system: Escherichia coli TOP10; assay: shrunken log2 fold change of peptide-encoding DNA abundance (4.5 h post-induction vs induction); higher = less antimicrobial activity (less host growth inhibition); conditions: time post-induction: 4.5 h; library: site-saturation at positions 5, 18, 19, 20
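Also: peptides expressed intracellularly from a pBAD plasmid library in pooled LB shake-flask culture, induced with 0.3% L-arabinose, DNA abundance read by NGS, three biological replicates, DESeq2 with apeglm shrinkage.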

Sequence	shrunken log2 fold change
RRIRFRPPRLPRPRPRPYKNPRP	-0.957
RRIRFRPPRLPRPRPRPYLVPRP	-0.423
RRIRFRPPRLPRPRPRPYMEPRP	-0.0116
RRIRFRPPRLPRPRPRPYPAPRP	-0.512
RRIRFRPPRLPRPRPRPYPDPRP	0.0764
RRIRFRPPRLPRPRPRPYPEPRP	-0.488
RRIRFRPPRLPRPRPRPYQPPRP	-0.269
RRIRFRPPRLPRPRPRPYRHPRP	-1.08
RRIRFRPPRLPRPRPRPYRYPRP	0.0548
RRIRFRPPRLPRPRPRPYSWPRP	-0.159
RRIRFRPPRLPRPRPRPYTNPRP	-1.17
RRIRFRPPRLPRPRPRPYVIPRP	-0.303
RRIRFRPPRLPRPRPRPYWFPRP	-0.0527
RRIRFRPPRLPRPRPRPYWLPRP	-0.234
RRIRFRPPRLPRPRPRPYYAPRP	-1.21
RRIRFRPPRLPRPRPRPYYGPRP	-0.0202
RRIRGRPPRLPRPRPRPAAQPRP	1.12
RRIRGRPPRLPRPRPRPADLPRP	0.604
RRIRGRPPRLPRPRPRPADMPRP	0.373
RRIRGRPPRLPRPRPRPADVPRP	0.508
RRIRGRPPRLPRPRPRPAEGPRP	0.335
RRIRGRPPRLPRPRPRPAEIPRP	0.076
RRIRGRPPRLPRPRPRPAFMPRP	0.585
RRIRGRPPRLPRPRPRPAFRPRP	0.749
RRIRGRPPRLPRPRPRPAFSPRP	0.0169

Sequence	shrunken log2 fold change
RRIRGRPPRLPRPRPRPAHKPRP	0.551
RRIRGRPPRLPRPRPRPAHNPRP	0.157
RRIRGRPPRLPRPRPRPAHRPRP	0.224
RRIRGRPPRLPRPRPRPAHSPRP	0.0755
RRIRGRPPRLPRPRPRPAIPPRP	-0.0508
RRIRGRPPRLPRPRPRPALAPRP	1.17
RRIRGRPPRLPRPRPRPALEPRP	1.11
RRIRGRPPRLPRPRPRPALVPRP	1.02
RRIRGRPPRLPRPRPRPAMHPRP	1.03
RRIRGRPPRLPRPRPRPAPAPRP	1.14
RRIRGRPPRLPRPRPRPAPIPRP	0.586
RRIRGRPPRLPRPRPRPAQHPRP	0.378
RRIRGRPPRLPRPRPRPASEPRP	1.13
RRIRGRPPRLPRPRPRPASQPRP	0.76
RRIRGRPPRLPRPRPRPATDPRP	0.531
RRIRGRPPRLPRPRPRPATRPRP	0.94
RRIRGRPPRLPRPRPRPAVQPRP	0.797
RRIRGRPPRLPRPRPRPAWNPRP	0.378
RRIRGRPPRLPRPRPRPAYLPRP	0.235
RRIRGRPPRLPRPRPRPAYQPRP	0.254
RRIRGRPPRLPRPRPRPCADPRP	1.48
RRIRGRPPRLPRPRPRPCCEPRP	0.528
RRIRGRPPRLPRPRPRPCDGPRP	0.123
RRIRGRPPRLPRPRPRPCDLPRP	0.0268
RRIRGRPPRLPRPRPRPCEYPRP	0.0669

Sequence	shrunken log2 fold change
RRIRGRPPRLPRPRPRPCGAPRP	1.16
RRIRGRPPRLPRPRPRPCGFPRP	1.25
RRIRGRPPRLPRPRPRPCHLPRP	-0.0648
RRIRGRPPRLPRPRPRPCKEPRP	-0.0407
RRIRGRPPRLPRPRPRPCKFPRP	0.125
RRIRGRPPRLPRPRPRPCLAPRP	0.599
RRIRGRPPRLPRPRPRPCLRPRP	0.459
RRIRGRPPRLPRPRPRPCMCPRP	0.263
RRIRGRPPRLPRPRPRPCMMPRP	0.145
RRIRGRPPRLPRPRPRPCPFPRP	-0.218
RRIRGRPPRLPRPRPRPCPGPRP	-0.0819
RRIRGRPPRLPRPRPRPCPHPRP	0.205
RRIRGRPPRLPRPRPRPCPKPRP	0.193
RRIRGRPPRLPRPRPRPCPPPRP	0.284
RRIRGRPPRLPRPRPRPCPSPRP	0.0189
RRIRGRPPRLPRPRPRPCPVPRP	0.197
RRIRGRPPRLPRPRPRPCQEPRP	0.0738
RRIRGRPPRLPRPRPRPCRAPRP	0.495
RRIRGRPPRLPRPRPRPCTFPRP	0.0341
RRIRGRPPRLPRPRPRPCTNPRP	0.247
RRIRGRPPRLPRPRPRPCWAPRP	0.485
RRIRGRPPRLPRPRPRPCWIPRP	-0.0658
RRIRGRPPRLPRPRPRPCWNPRP	0.183
RRIRGRPPRLPRPRPRPDAHPRP	0.421
RRIRGRPPRLPRPRPRPDASPRP	1.34

Sequence	shrunken log2 fold change
RRIRGRPPRLPRPRPRPDDQPRP	1.92
RRIRGRPPRLPRPRPRPDDYPRP	0.662
RRIRGRPPRLPRPRPRPDELPRP	0.955
RRIRGRPPRLPRPRPRPDEYPRP	0.168
RRIRGRPPRLPRPRPRPDFTPRP	0.22
RRIRGRPPRLPRPRPRPDGVPRP	0.368
RRIRGRPPRLPRPRPRPDHCPRP	0.0254
RRIRGRPPRLPRPRPRPDHEPRP	0.858
RRIRGRPPRLPRPRPRPDHFPRP	-0.31
RRIRGRPPRLPRPRPRPDHHPRP	-0.0187
RRIRGRPPRLPRPRPRPDIIPRP	0.188
RRIRGRPPRLPRPRPRPDITPRP	1.01
RRIRGRPPRLPRPRPRPDKCPRP	0.627
RRIRGRPPRLPRPRPRPDLAPRP	1.59
RRIRGRPPRLPRPRPRPDLCPRP	0.445
RRIRGRPPRLPRPRPRPDMHPRP	0.512
RRIRGRPPRLPRPRPRPDMIPRP	0.531
RRIRGRPPRLPRPRPRPDNFPRP	0.169
RRIRGRPPRLPRPRPRPDNTPRP	0.204
RRIRGRPPRLPRPRPRPDPMPRP	0.743
RRIRGRPPRLPRPRPRPDPTPRP	1.06
RRIRGRPPRLPRPRPRPDQIPRP	0.167
RRIRGRPPRLPRPRPRPDQPPRP	1.01
RRIRGRPPRLPRPRPRPDRKPRP	0.051
RRIRGRPPRLPRPRPRPDTKPRP	0.239

Sequence	shrunken log2 fold change
RRIRGRPPRLPRPRPRPDTLPRP	0.169
RRIRGRPPRLPRPRPRPDVKPRP	0.356
RRIRGRPPRLPRPRPRPDVNPRP	0.245
RRIRGRPPRLPRPRPRPDWPPRP	0.566
RRIRGRPPRLPRPRPRPDWVPRP	0.287
RRIRGRPPRLPRPRPRPDYGPRP	0.0184
RRIRGRPPRLPRPRPRPDYLPRP	0.115
RRIRGRPPRLPRPRPRPEAPPRP	1.73
RRIRGRPPRLPRPRPRPECDPRP	2.16
RRIRGRPPRLPRPRPRPEDRPRP	0.23
RRIRGRPPRLPRPRPRPEFIPRP	0.131
RRIRGRPPRLPRPRPRPEFWPRP	2.24
RRIRGRPPRLPRPRPRPEFYPRP	0.0687
RRIRGRPPRLPRPRPRPEGWPRP	1.99
RRIRGRPPRLPRPRPRPEKEPRP	0.0374
RRIRGRPPRLPRPRPRPEKHPRP	0.617
RRIRGRPPRLPRPRPRPEKSPRP	0.0928
RRIRGRPPRLPRPRPRPELRPRP	1.71
RRIRGRPPRLPRPRPRPEMAPRP	2.8
RRIRGRPPRLPRPRPRPEPGPRP	1.33
RRIRGRPPRLPRPRPRPEPIPRP	0.296
RRIRGRPPRLPRPRPRPESCPRP	1.33
RRIRGRPPRLPRPRPRPESWPRP	1.7
RRIRGRPPRLPRPRPRPEWEPRP	0.00476
RRIRGRPPRLPRPRPRPEWMPRP	0.933

Sequence	shrunken log2 fold change
RRIRGRPPRLPRPRPRPFAMPRP	0.68
RRIRGRPPRLPRPRPRPFCKPRP	0.0671
RRIRGRPPRLPRPRPRPFCMPRP	0.0902
RRIRGRPPRLPRPRPRPFFQPRP	0.103
RRIRGRPPRLPRPRPRPFFSPRP	0.125
RRIRGRPPRLPRPRPRPFFYPRP	0.539
RRIRGRPPRLPRPRPRPFGIPRP	-0.0144
RRIRGRPPRLPRPRPRPFKIPRP	0.0381
RRIRGRPPRLPRPRPRPFKMPRP	0.143
RRIRGRPPRLPRPRPRPFLDPRP	0.209
RRIRGRPPRLPRPRPRPFLLPRP	0.206
RRIRGRPPRLPRPRPRPFLQPRP	0.231
RRIRGRPPRLPRPRPRPFLRPRP	-0.0587
RRIRGRPPRLPRPRPRPFLTPRP	0.0427
RRIRGRPPRLPRPRPRPFMFPRP	1.16
RRIRGRPPRLPRPRPRPFMYPRP	0.345
RRIRGRPPRLPRPRPRPFNAPRP	-0.132
RRIRGRPPRLPRPRPRPFNEPRP	-0.231
RRIRGRPPRLPRPRPRPFNHPRP	-0.357
RRIRGRPPRLPRPRPRPFNRPRP	-0.0104
RRIRGRPPRLPRPRPRPFNTPRP	-0.309
RRIRGRPPRLPRPRPRPFPSPRP	0.142
RRIRGRPPRLPRPRPRPFSGPRP	-0.325
RRIRGRPPRLPRPRPRPFTPPRP	0.0836
RRIRGRPPRLPRPRPRPFTWPRP	0.725
